{
  "source": "patent US20190000984A1",
  "binders": {"B1": {"name": "anti-IL-4R:anti-CD63 conjugate (streptavidin-conjugated anti-IL-4R antibody combined 1:1 with biotinylated anti-CD63 antibody MEM-259) (protein, part only; not given: anti-CD63 antibody and constant regions, part only)", "VH": "EVQLVESGGGVVQPGRSLRLSCVASGFTFSDYGMHWVRQAPGKGLEWVAVIWYDGSIKYFRDSVKGRFTISRDNSKNTLYLQMNSLRVEDTAHYYCAKESSSWYFYHGLDVWGQGTMVTVSS", "VL": "EIVMTQSPLSLPVSPGEPASISCRSNQSLLHSNGNNYLAWYLQKPGQSPHLLIYLGSNRASGVPDRFSGSGSGTDFTLKISRVEAGDVGTYFCMQSLQAPPFTFGPGTKVEIKR", "modifications": "antibody conjugated to streptavidin (site not stated)"}},
  "target": "IL-4R (interleukin-4 receptor) (UniProt P24394)",
  "test": "cell-based or functional assay",
  "data": [
    {"binder": "B1", "values": [
      {"measurement": "attenuation of IL-4R activity against the control constructs (STAT6-luciferase)", "value": "> 10", "unit": "%"}
    ]}
  ]
}
